The source of these data is patent US20220305098.

The data set deals with T1, S5a protein (Ube3a target protein), P55036.
T1 chain: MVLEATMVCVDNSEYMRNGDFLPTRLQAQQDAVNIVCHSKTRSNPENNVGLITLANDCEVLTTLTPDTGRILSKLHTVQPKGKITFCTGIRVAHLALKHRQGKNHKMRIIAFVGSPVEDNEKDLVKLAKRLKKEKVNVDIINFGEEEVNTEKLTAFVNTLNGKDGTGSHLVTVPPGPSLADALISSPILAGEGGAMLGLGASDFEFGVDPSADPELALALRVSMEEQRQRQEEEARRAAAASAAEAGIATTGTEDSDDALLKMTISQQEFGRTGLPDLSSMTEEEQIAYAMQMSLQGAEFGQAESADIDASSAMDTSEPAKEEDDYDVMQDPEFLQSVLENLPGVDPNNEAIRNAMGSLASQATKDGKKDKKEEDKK

B1: Human Ube3a isoform 1 with 8xN-glycan sites and IL2 secretion signal (expressed from the hAS8 lentiviral vector) (protein)
chain: MKRAAAKHLIERYYHQLTEGCGNEACTNEFCASCPTFLRMDNNTAAIKALELYKINAKLCDPHPSKKGASSAYLENSTGAPNNTCSEIKMNKKGARIDFKDVTYLTEEKVYEILELCREREDYSPLIRVIGRVFSSAEALVQSFRKVKQHTKEELKSLQAKDEDKDEDEKEKAACSAAAMEEDSEASSSRIGDSSQGDNNTQKLGPDDVSVDIDAIRRVYTRLLSNEKIETAFLNALVYLSPNVECDLTYHNVYSRDPNYLNLFIIVMENRNLHSPEYLEMALPLFCKAMSKLPLAAQGKLIRLWSKYNADQIRRMMETFQQLITYKVISNEFNSTNLVNDDDAIVAASKCLKMVYYANVVGGEVDTNHNEEDDEEPIPESSELTLQELLGEERRNKKGPRVDPLETELGVKTLDCRKPLIPFEEFINEPLNEVLEMDKDYTFFKVETENKFSFMTCPFILNAVTKNLGLYYDNRIRMYSERRITVLYSLVQGQQLNPYLRLKVRRDHIIDDALVRLEMIAMENPADLKKQLYVEFEGEQGVDEGGVSKEFFQLVVEEIFNPDIGMFTYDNSTKLFWFNPSSFETEGQFTLIGIVLGLAIYNNTILDVHFPMVVYRKLMGKKGTFRDLGDSHPVLYQSLKDLLEYEGNVEDDMMITFQISQTDLFGNPMMYDLKENGDKIPITNENRKEFVNLYSDYILNKSVEKQFKAFRRGFHMVTNESPLKYLFRPEEIELLICGSRNLDFQALEETTEYDGGYTRDSVLIREFWEIVHSFTDEQKRLFLQNNTGTDRAPVGGLGKLKMIIAKNGPDTERLPTSHTCFNVLLLPEYSSKEKLKERLLKAITYAKGFGML
For B1, the “ubiquitination activity of the Ube3a S5a target protein (blot, bands of ubiquitinated S5A)” value is “different mutated forms of Ube3a ubiquitinate their S5A target”.
